B1: REGN10987 (antibody, V domains shown)
VH: QVQLVESGGGVVQPGRSLRLSCAASGFTFSNYAMYWVRQAPGKGLEWVAVISYDGSNKYYADSVKGRFTISRDNSKNTLYLQMNSLRTEDTAVYYCASGSDYGDYLLVYWGQGTLVTVSS
VL: QSALTQPASVSGSPGQSITISCTGTSSDVGGYNYVSWYQQHPGKAPKLMIYDVSKRPSGVSNRFSGSKSGNTASLTISGLQSEDEADYYCNSLTSISTWVFGGGTKLTVL
B2: REGN14315 (antibody, V domains shown)
VH: QVQLVQSGAEVKKPGSSVKVSCKASGDTFSTYAINWVRQAPGQGLEWMGRFIHIFGTANYAQKFQGRVTITADESTSTAYMELRSLRSEDTAVYYCARDGVDYGDYRPDYWGQGTLVTVSS
VL: EIVLTQSPGTLSLSPGERATLSCRASQSVSSNYLAWYQQKPGQAPRLLIYGASSRATGIPERFSGSGSGTDFTLTISRLEPEDFAVYYCQQYGSSLYTFGQGTKLEIK
B3: REGN14315 + REGN10987 (protein)
VH 1: B2 VH
VL 1: B2 VL
VH 2: B1 VH
VL 2: B1 VL

Biological target: SARS-COV-2 Spike, Omicron variant BA.4 + R346T (BA.4.6) (SARS-COV-2), P0DTC2
Assay: cell-based or functional assay

Row | Binder | Fold change over R10987 against D614G [fold] | pseudovirus neutralization IC50 [nM]
1 | B1 | 236 | 1.25
2 | B2 | 255 | 1.35
3 | B3 | 132 | 0.698

Reference: US20240309072A1
